Measurements reported in paper PMC10897489.

Tests used:
[1] = target: SARS-CoV-2 N protein (NCAP_SARS2) (SARS-CoV-2, UniProt P0DTC9 1-419); assay: ITC; details: protein: recombinant; chain copies: 2
FXR1 215-360 (KH1-KH2) = FXR1 215-360 (KH1-KH2) (UniProt P51114 215-360); assay: ITC; ITC: 50 mM sodium phosphate pH 7.5, 150 mM NaCl, 0.5 mM TCEP, 25 °C; details: protein: recombinant; tags: His or GST (not specified which)

B1: NF1 RNA (ssRNA)
RNA: GGAUCAUUUUGUUGGACUCAAUUUCAACUCUAACUUUAACUUUGCAUUGGUUGGACACCU
In the case of B1, the Kd [1] is reported as 380 ± 40 nM and the binding result (FXR1 215-360 (KH1-KH2)) is reported as “no binding”.
